Paper PMC5852006, “Microvillar and ciliary defects in zebrafish lacking an actin-binding bioactive peptide amidating enzyme” (Scientific Reports, 2018)

Target: Filamentous actin, pre-formed actin filaments derived from rabbit skeletal muscle (rabbit, UniProt P68135 1-377)
Experiment: co-sedimentation; F-actin spin-down; constant 0.5 μM F-actin with varying concentrations of PAM-CD; PAM-CD in supernatants and pellets by electrophoretic analysis; Scatchard analysis of three experiments
Conditions: both partners purified

Kd: 600 nM
B1: Peptidylglycine α-amidating monooxygenase cytosolic C-terminal domain, recombinant rat PAM(898–976) (domain or fragment)
chain: FGDHDRKLESSSGRVLGRFRGKGSGGLNLGNFFASRKGYSRKGFDRVSTEGSDQEKDEDDGTESEEEYSAPLPKPAPSS
notes: Peptidylglycine alpha-amidating monooxygenase (PAM), rat, cytosolic C-terminal domain, residues 898-976; no tag is mentioned; also called PAM-CD; rat PAM-CD; source: E. coli BL21(DE3), pET-11CD vector, purified
